Experimental data: publication doi:10.1101/2025.05.22.655678

Biological target: T1, VchI (Vibrio cholerae)
T1 chain: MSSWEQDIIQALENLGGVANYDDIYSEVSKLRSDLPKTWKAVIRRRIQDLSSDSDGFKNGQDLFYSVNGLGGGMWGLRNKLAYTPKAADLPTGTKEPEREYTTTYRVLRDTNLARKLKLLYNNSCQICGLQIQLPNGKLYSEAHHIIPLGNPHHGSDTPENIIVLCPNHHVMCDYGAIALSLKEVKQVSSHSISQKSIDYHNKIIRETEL
Experiment: EMSA

Binder	binding result
60bp-5 (dsDNA, N6-methyladenine in any context (M.EcoGII)) DNA 1: TGACGACCATCAGGGACAGCTTCAAGGATCGCTCGCGGCTCTTACCAGCCTAACTTCGAT DNA 2: ATCGAAGTTAGGCTGGTAAGAGCCGCGAGCGATCCTTGAAGCTGTCCCTGATGGTCGTCA	binds
60bp-1 (dsDNA, N6-methyladenine in any context (M.EcoGII)) DNA 1: AGAAGCAGGCCATTATCGCCGGCATGGCGGCCGACGCGCTGGGCTACGTCTTGCTGGCGT DNA 2: ACGCCAGCAAGACGTAGCCCAGCGCGTCGGCCGCCATGCCGGCGATAATGGCCTGCTTCT	no binding
60bp-3 (dsDNA, N6-methyladenine in any context (M.EcoGII)) DNA 1: GCCTTCCCCATTATGATTCTTCTCGCTTCCGGCGGCATCGGGATGCCCGCGTTGCAGGCC DNA 2: GGCCTGCAACGCGGGCATCCCGATGCCGCCGGAAGCGAGAAGAATCATAATGGGGAAGGC	binds
60bp-4 (dsDNA, N6-methyladenine in any context (M.EcoGII)) DNA 1: GGATGCCCGCGTTGCAGGCCATGCTGTCCAGGCAGGTAGATGACGACCATCAGGGACAGC DNA 2: GCTGTCCCTGATGGTCGTCATCTACCTGCCTGGACAGCATGGCCTGCAACGCGGGCATCC	no binding
60bp-2 (dsDNA, N6-methyladenine in any context (M.EcoGII)) DNA 1: GGGCTACGTCTTGCTGGCGTTCGCGACGCGAGGCTGGATGGCCTTCCCCATTATGATTCT DNA 2: AGAATCATAATGGGGAAGGCCATCCAGCCTCGCGTCGCGAACGCCAGCAAGACGTAGCCC	binds
60bp-7 (dsDNA, N6-methyladenine in any context (M.EcoGII)) DNA 1: CGGCGATTTATGCCGCCTCGGCGAGCACATGGAACGGGTTGGCATGGATTGTAGGCGCCG DNA 2: CGGCGCCTACAATCCATGCCAACCCGTTCCATGTGCTCGCCGAGGCGGCATAAATCGCCG	binds

Biological target: T1, VchI
Experiment: EMSA
Remark: another data set of the same source

Binder	binding result
59bp-GAG (dsDNA, N6-methyladenine at A of GAG (position 30, printed M6A); legend says M.EcoGII-methylated) DNA 1: TTTTTTTTTTTTTTTTTTTTTTTTTTTTGAGTTTTTTTTTTTTTTTTTTTTTTTTTTTT DNA 2: AAAAAAAAAAAAAAAAAAAAAAAAAAAACTCAAAAAAAAAAAAAAAAAAAAAAAAAAAA	binds
ss-59nt-GAG (ssDNA, N6-methyladenine at A of GAG (position 30)) DNA: TTTTTTTTTTTTTTTTTTTTTTTTTTTTGAGTTTTTTTTTTTTTTTTTTTTTTTTTTTT	no binding
60bp-2-V (dsDNA, N6-methyladenine in any context (M.EcoGII)) DNA 1: GGGCTACGTCTTGCTGGCGTTCGCGACTTTTTGCTGGATGGCCTTCCCCATTATGATTCT DNA 2: AGAATCATAATGGGGAAGGCCATCCAGCAAAAAGTCGCGAACGCCAGCAAGACGTAGCCC	no binding
CCGAG (dsDNA, N6-methyladenine in any context (M.EcoGII)) DNA 1: GGGCTACGTCTTGCTGGCGTTCGCGACCCGAGGCTGGATGGCCTTCCCCATTATGATTCT DNA 2: AGAATCATAATGGGGAAGGCCATCCAGCCTCGGGTCGCGAACGCCAGCAAGACGTAGCCC	binds
GAGAG (dsDNA, N6-methyladenine in any context (M.EcoGII)) DNA 1: GGGCTACGTCTTGCTGGCGTTCGCGACGAGAGGCTGGATGGCCTTCCCCATTATGATTCT DNA 2: AGAATCATAATGGGGAAGGCCATCCAGCCTCTCGTCGCGAACGCCAGCAAGACGTAGCCC	binds
GCGAC (dsDNA, N6-methyladenine in any context (M.EcoGII)) DNA 1: GGGCTACGTCTTGCTGGCGTTCGCGACGCGACGCTGGATGGCCTTCCCCATTATGATTCT DNA 2: AGAATCATAATGGGGAAGGCCATCCAGCGTCGCGTCGCGAACGCCAGCAAGACGTAGCCC	no binding
TCGAG (dsDNA, N6-methyladenine in any context (M.EcoGII)) DNA 1: GGGCTACGTCTTGCTGGCGTTCGCGACTCGAGGCTGGATGGCCTTCCCCATTATGATTCT DNA 2: AGAATCATAATGGGGAAGGCCATCCAGCCTCGAGTCGCGAACGCCAGCAAGACGTAGCCC	binds
GCCAG (dsDNA, N6-methyladenine in any context (M.EcoGII)) DNA 1: GGGCTACGTCTTGCTGGCGTTCGCGACGCCAGGCTGGATGGCCTTCCCCATTATGATTCT DNA 2: AGAATCATAATGGGGAAGGCCATCCAGCCTGGCGTCGCGAACGCCAGCAAGACGTAGCCC	no binding
GGGAG (dsDNA, N6-methyladenine in any context (M.EcoGII)) DNA 1: GGGCTACGTCTTGCTGGCGTTCGCGACGGGAGGCTGGATGGCCTTCCCCATTATGATTCT DNA 2: AGAATCATAATGGGGAAGGCCATCCAGCCTCCCGTCGCGAACGCCAGCAAGACGTAGCCC	binds
GCTAG (dsDNA, N6-methyladenine in any context (M.EcoGII)) DNA 1: GGGCTACGTCTTGCTGGCGTTCGCGACGCTAGGCTGGATGGCCTTCCCCATTATGATTCT DNA 2: AGAATCATAATGGGGAAGGCCATCCAGCCTAGCGTCGCGAACGCCAGCAAGACGTAGCCC	no binding
GCAAG (dsDNA, N6-methyladenine in any context (M.EcoGII)) DNA 1: GGGCTACGTCTTGCTGGCGTTCGCGACGCAAGGCTGGATGGCCTTCCCCATTATGATTCT DNA 2: AGAATCATAATGGGGAAGGCCATCCAGCCTTGCGTCGCGAACGCCAGCAAGACGTAGCCC	no binding
GCGAA (dsDNA, N6-methyladenine in any context (M.EcoGII)) DNA 1: GGGCTACGTCTTGCTGGCGTTCGCGACGCGAAGCTGGATGGCCTTCCCCATTATGATTCT DNA 2: AGAATCATAATGGGGAAGGCCATCCAGCTTCGCGTCGCGAACGCCAGCAAGACGTAGCCC	no binding
GTGAG (dsDNA, N6-methyladenine in any context (M.EcoGII)) DNA 1: GGGCTACGTCTTGCTGGCGTTCGCGACGTGAGGCTGGATGGCCTTCCCCATTATGATTCT DNA 2: AGAATCATAATGGGGAAGGCCATCCAGCCTCACGTCGCGAACGCCAGCAAGACGTAGCCC	binds
GCGAT (dsDNA, N6-methyladenine in any context (M.EcoGII)) DNA 1: GGGCTACGTCTTGCTGGCGTTCGCGACGCGATGCTGGATGGCCTTCCCCATTATGATTCT DNA 2: AGAATCATAATGGGGAAGGCCATCCAGCATCGCGTCGCGAACGCCAGCAAGACGTAGCCC	no binding
60bp-7-V (dsDNA, N6-methyladenine in any context (M.EcoGII)) DNA 1: CGGCGATTTATGCCGCCTCGTTTTTCACATGGAACGGGTTGGCATGGATTGTAGGCGCCG DNA 2: CGGCGCCTACAATCCATGCCAACCCGTTCCATGTGAAAAACGAGGCGGCATAAATCGCCG	binds
